# Experimental data reported in the Immune Epitope Database (IEDB).
# pIC50, pKd: −log10 of the molar value.
# Experiments:
# [1] = target: HLA-A*02:01; assay: IEDB peptide-MHC binding, purified MHC/competitive/fluorescence; ≥ and ≤ were set here for values at or beyond the usual limits of such assays
# [2] = target: HLA-A*24:02; assay: as above
# [3] = target: HLA-B*15:01; assay: as above
# [4] = target: HLA-B*51:01; assay: IEDB peptide-MHC binding, purified MHC/direct/fluorescence; filed as Kd, often an IC50 or EC50 that approximates it; ≥ and ≤ were set here for values at or beyond the usual limits of such assays
# [5] = target: HLA-B*15:01; assay: as above
# [6] = target: HLA-B*07:02; assay: as above
# [7] = target: HLA-B*57:01; assay: IEDB peptide-MHC binding, purified MHC/competitive/radioactivity; filed as Kd, often an IC50 or EC50 that approximates it; ≥ and ≤ were set here for values at or beyond the usual limits of such assays
# [8] = target: HLA-B*58:01; assay: as above
# [9] = target: HLA-A*11:01; assay: IEDB peptide-MHC binding, purified MHC/competitive/fluorescence; ≥ and ≤ were set here for values at or beyond the usual limits of such assays
# [10] = target: HLA-A*03:01; assay: as above
# [11] = target: HLA-A*32:01; assay: IEDB peptide-MHC binding, purified MHC/competitive/radioactivity; filed as Kd, often an IC50 or EC50 that approximates it; ≥ and ≤ were set here for values at or beyond the usual limits of such assays
# [12] = target: HLA-B*15:17; assay: IEDB peptide-MHC binding, purified MHC/direct/fluorescence; filed as Kd, often an IC50 or EC50 that approximates it; ≥ and ≤ were set here for values at or beyond the usual limits of such assays; settings: source organism: Yellow fever virus
# [13] = target: HLA-B*57:01; assay: as above
# [14] = target: HLA-B*40:01; assay: as above
# [15] = target: HLA-A*02:01; assay: as above
# [16] = target: HLA-B*46:01; assay: as above
# [17] = target: HLA-B*27:05; assay: as above
# [18] = target: HLA-A*01:01; assay: as above
# [19] = target: HLA-A*24:02; assay: as above
# [20] = target: HLA-A*69:01; assay: as above
# [21] = target: HLA-B*18:01; assay: as above
# [22] = target: HLA-B*58:01; assay: as above
# [23] = target: HLA-A*11:01; assay: as above
# [24] = target: HLA-A*03:01; assay: as above
# [25] = target: HLA-B*08:02; assay: as above; settings: source organism: Vibrio parahaemolyticus AQ3810
# [26] = target: HLA-B*44:02; assay: as above
# [27] = target: HLA-B*08:01; assay: as above
# [28] = target: HLA-A*31:01; assay: as above
# [29] = target: HLA-A*26:01; assay: as above
# [30] = target: HLA-B*53:01; assay: IEDB peptide-MHC binding, purified MHC/competitive/radioactivity; filed as Kd, often an IC50 or EC50 that approximates it; ≥ and ≤ were set here for values at or beyond the usual limits of such assays; settings: source organism: Dengue virus 3 Martinique/1243/1999
# [31] = target: HLA-A*24:02; assay: as above; settings: source organism: Dengue virus 3 Martinique/1243/1999
# [32] = target: HLA-B*48:01; assay: IEDB peptide-MHC binding, purified MHC/direct/fluorescence; filed as Kd, often an IC50 or EC50 that approximates it; ≥ and ≤ were set here for values at or beyond the usual limits of such assays; settings: source organism: Mammarenavirus lassaense
# [33] = target: HLA-A*29:02; assay: as above; settings: source organism: Mammarenavirus lassaense
# [34] = source organism: Vaccinia virus Copenhagen
# [35] = source organism: Giardia lamblia ATCC 50803
# [36] = source organism: Dengue virus 2 Jamaica/1409/1983
# [37] = source organism: Sudan ebolavirus
# [38] = source organism: Zaire ebolavirus
# [39] = source organism: Dengue virus 3 Martinique/1243/1999
# [40] = source organism: Escherichia coli O157:H7
# [41] = source organism: Dengue virus 1 Brazil/97-11/1997
# [42] = source organism: Influenza A virus (A/chicken/Hunan/fg/2004(H5N1))
# [43] = source organism: Dengue virus 4 Philippines/H241/1956
# [44] = source organism: Bacillus anthracis
# [45] = source organism: Mammarenavirus lassaense
# [46] = source organism: Dengue virus 3 Singapore/8120/1995
# [47] = source organism: Yersinia pestis
# [48] = source organism: Lassa virus Josiah
sequence,measurement,setting,value
ASPMLYQLL,pIC50,[1]; [34],4.40
same,pIC50,[2]; [34],6.63
same,pIC50,[3]; [34],4.43
KLRSNALSL,pKd,[4]; [35],≤ 4.70
same,pKd,[5]; [35],7.60
same,pKd,[6]; [35],8.10
FGSLGGVFTS,pKd,[7]; [36],5.66
same,pKd,[8]; [36],5.27
PPDGVRGFP,pIC50,[9]; [37],4.20
same,pIC50,[10]; [37],4.17
AMNEENRFV,pIC50,[1]; [38],5.17
same,pIC50,[3]; [38],≤ 3.66
KAKGSRAIW,pKd,[7]; [39],8.00
same,pKd,[8]; [39],6.55
FLPNPAFIH,pIC50,[1]; source organism: Variola virus,5.68
same,pIC50,[2]; source organism: Variola virus,6.30
same,pIC50,[3]; source organism: Variola virus,4.59
TSSQQKADWI,pKd,[7]; [36],5.59
same,pKd,[8]; [36],5.97
PATLLVWHTW,pKd,[11]; [39],5.44
same,pKd,[7]; [39],5.86
same,pKd,[8]; [39],6.56
ESWIVDRQW,pKd,[12],6.87
same,pKd,[13]; source organism: Yellow fever virus,7.71
QMRVRYYGL,pKd,[14]; [40],≤ 4.70
same,pKd,[15]; [40],≤ 4.70
same,pKd,[16]; [40],≤ 4.70
same,pKd,[17]; [40],≤ 4.70
same,pKd,[18]; [40],≤ 4.70
same,pKd,[19]; [40],≤ 4.70
same,pKd,[5]; [40],≤ 4.70
same,pKd,[20]; [40],≤ 4.70
same,pKd,[6]; [40],≤ 4.70
same,pKd,[21]; [40],≤ 4.70
same,pKd,[22]; [40],≤ 4.70
same,pKd,[23]; [40],≤ 4.70
same,pKd,[24]; [40],≤ 4.70
GLITGGRRT,pIC50,[1]; [38],4.83
same,pIC50,[2]; [38],4.72
same,pIC50,[9]; [38],≤ 4.00
same,pIC50,[10]; [38],≤ 3.85
FLRKHNEGL,pKd,[25],5.76
RKAIDFLLR,pIC50,[10]; [37],≤ 3.67
KPKLKVATL,pKd,[14]; [40],≤ 4.70
same,pKd,[15]; [40],≤ 4.70
same,pKd,[17]; [40],≤ 4.70
same,pKd,[18]; [40],≤ 4.70
same,pKd,[19]; [40],≤ 4.70
same,pKd,[5]; [40],≤ 4.70
same,pKd,[20]; [40],≤ 4.70
same,pKd,[6]; [40],7.17
same,pKd,[21]; [40],≤ 4.70
same,pKd,[26]; [40],≤ 4.70
same,pKd,[22]; [40],≤ 4.70
same,pKd,[23]; [40],≤ 4.70
same,pKd,[24]; [40],≤ 4.70
KASFIEVKSC,pKd,[7]; [36],6.96
same,pKd,[8]; [36],6.43
CTSQILLMRT,pKd,[7]; [41],5.62
same,pKd,[8]; [41],4.77
YFGPAAEGI,pIC50,[1]; [38],4.22
same,pIC50,[2]; [38],6.60
same,pIC50,[3]; [38],≤ 3.71
KILTAGLSV,pIC50,[1]; [38],5.59
same,pIC50,[9]; [38],≤ 3.80
same,pIC50,[10]; [38],4.44
PLARTAKVK,pIC50,[9]; [38],4.32
same,pIC50,[10]; [38],5.38
DTVNRTHQY,pKd,[14]; [42],≤ 4.70
same,pKd,[15]; [42],≤ 4.70
same,pKd,[17]; [42],≤ 4.70
same,pKd,[19]; [42],≤ 4.70
same,pKd,[27]; [42],≤ 4.70
same,pKd,[28]; [42],≤ 4.70
same,pKd,[5]; [42],≤ 4.70
same,pKd,[29]; [42],8.26
same,pKd,[20]; [42],≤ 4.70
same,pKd,[6]; [42],≤ 4.70
same,pKd,[26]; [42],≤ 4.70
same,pKd,[22]; [42],≤ 4.70
same,pKd,[23]; [42],≤ 4.70
same,pKd,[24]; [42],≤ 4.70
HMQISTIGI,pIC50,[1]; [37],5.39
same,pIC50,[2]; [37],4.81
same,pIC50,[3]; [37],5.02
IITPIVFYR,pIC50,[1]; [34],≤ 3.88
same,pIC50,[2]; [34],4.69
same,pIC50,[9]; [34],6.58
same,pIC50,[10]; [34],5.83
GATTETPTW,pKd,[30],7.16
same,pKd,[7]; [39],7.09
same,pKd,[8]; [39],8.68
ISNSVAQAR,pIC50,[9]; [38],4.31
same,pIC50,[10]; [38],≤ 3.96
ESSSNPTIEE,pKd,[7]; [43],5.63
same,pKd,[8]; [43],5.02
SASEAVNDSR,pKd,[7]; [43],5.86
same,pKd,[8]; [43],7.40
WMAEIPLQW,pKd,[31],6.76
same,pKd,[8]; [39],7.86
RPQHVKKSA,pKd,[4]; [44],≤ 4.70
same,pKd,[5]; source organism: Bacillus cereus NVH0597-99,≤ 4.70
same,pKd,[6]; [44],8.07
GILGSLGLR,pIC50,[1]; [37],5.44
same,pIC50,[9]; [37],5.42
same,pIC50,[10]; [37],4.82
DIKLIDIAL,pKd,[32],≤ 4.70
same,pKd,[15]; [45],≤ 4.70
same,pKd,[16]; [45],≤ 4.70
same,pKd,[17]; [45],≤ 4.70
same,pKd,[18]; [45],≤ 4.70
same,pKd,[27]; [45],6.05
same,pKd,[28]; [45],≤ 4.70
same,pKd,[5]; [45],≤ 4.70
same,pKd,[33],≤ 4.70
same,pKd,[6]; [45],≤ 4.70
same,pKd,[13]; [45],≤ 4.70
same,pKd,[26]; [45],≤ 4.70
same,pKd,[22]; [45],≤ 4.70
same,pKd,[23]; [45],≤ 4.70
same,pKd,[24]; [45],≤ 4.70
KAIDFLLQR,pIC50,[1]; [38],5.02
same,pIC50,[2]; [38],≤ 3.79
same,pIC50,[9]; [38],6.16
same,pIC50,[10]; [38],4.54
SLTESDMDY,pIC50,[1]; [38],≤ 3.85
same,pIC50,[3]; [38],4.17
KVMEITAEW,pKd,[11]; [46],7.84
same,pKd,[7]; [46],7.74
same,pKd,[8]; [46],8.96
LQLFLRATT,pIC50,[1]; [37],≤ 3.90
same,pIC50,[3]; [37],≤ 4.04
RVFNGDDVK,pKd,[14]; [47],≤ 4.70
same,pKd,[15]; [47],≤ 4.70
same,pKd,[16]; [47],≤ 4.70
same,pKd,[17]; [47],≤ 4.70
same,pKd,[18]; [47],≤ 4.70
same,pKd,[19]; [47],≤ 4.70
same,pKd,[28]; [47],5.38
same,pKd,[5]; [47],≤ 4.70
same,pKd,[29]; source organism: Yersinia pestis CA88-4125,≤ 4.70
same,pKd,[20]; [47],≤ 4.70
same,pKd,[6]; [47],≤ 4.70
same,pKd,[21]; [47],≤ 4.70
same,pKd,[26]; [47],≤ 4.70
same,pKd,[22]; [47],≤ 4.70
same,pKd,[23]; [47],6.60
same,pKd,[24]; [47],5.86
LPTKLRPSA,pKd,[4]; [48],≤ 4.70
same,pKd,[6]; [48],6.99
